Reference: a protein production outcome set (Wang et al. 2014)

Assay: label from the status in PepcDB records
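Note: failed if final PepcDB status was selected cloned or expressed and not failed if soluble or beyond.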

Sequence: MTWQPFYVGTGQAPAGAEEQVVLPPAPPWREFPRRSQHRQFVPPPRLAEAVNAALALRRPLLVTGPAGSGKSTVIEQVAAELALGDVLRWHITSRSSLAEALYRYDALGRIHAQRLEGPGGSDDIAPFLRMGPLGTALLPSARPRALLIDEIDKSDLDLPSDLLDVLERGEFEIPELARYGTDVVPVREHGGERTHLIARGRVQCAEFPFIVMTSNGDRDFPAAFLRRCIRFTMPLPTPETLLRVVEAHMGPEKAAADETGRLITVFLERLTAGESLAVDQLLNAVHLLTGDGAPGDDRRQAIAELILRELSHALEHHHHHH
- protein production: failed

Sequence: MEHKKALFCIFAIIHLFFWIIFSSLNHFKLDTFLSYEIAFFSVLLIIFASYLNYKKVIIKKSKNYEKDFNFISSLFIKKKQNLSKIIHFKVLKDDLKPNVKEKIHFFAMFFTLFKLMAYVVLVAGFLFLHRQDKLDIFAYICGISSLLVCVFIFILYIKKYESKKNY
- protein production: failed

Sequence: GSSGSSGPSSPSIDQVEPYSSTAQVQFDEPEATGGVPILKYKAEWRAVGEEVWHSKWYDAKEASMEGIVTIVGLKPETTYAVRLAALNGKGLGEISAASEFKTQPVREPSAPKLEGSGPSSG
- protein production: not failed

Sequence: MVLLSIDFASLHTILESLYNEMMPLCEDMLGVAKGVAGLGALFYVALRVWQSMARAEPVDVYPLLRPFALGICILLFPTLVLGTMNSILSPIVQGTHRMLEGQTLDMQQYRAQKDRLEREAMMRNPETAYLVSDEEFDRQLDELGWSPGDAATRLGMYMEVGMYNLEKSIRDAFRSLLELLFAAASLLIDTVRTFFLVVLSVLGPIAFSISVWDGLQSTLGQWFTRYISVYLWLPVSDLFSCMLAKIQVLMLQNDIAELQGNPDYSLDNSNCVYIIFMLIGIVGYFTVPTVSGWIVQAGGGGNYSRNLNRTATKAGGFTAGAGGAALGNIGGRIRGK
- protein production: failed

Sequence: METEGSLSILHVDDDAELGALVELYLEREDSGLDCTVTTETNPETALSLIRSSETNFDCIVSDYDMPEMNGIDFLEAIRETHPELPVLLFSGEETGDVAAEIIQAGVTDYLKKSVGTDQYTSLIRRVEHAVDSDGSFETGNEVKLSGVGVIGTDERFERVGETYASYYGYESEELVGKHWSELHPSNEVQHIRTHVIPAVRSGGKWTGQSKGLRADETTFTESKMVTALEDGRMLIAVDEIDDSGLAE
- protein production: failed

Sequence: MNMDISKAAIVTGGSRGIGRAIAARLAADGFAVVVNYAGNGAKAHETVAAIESAGGKAIAIQGDVGKPQDVANLFAQARAAFGRIDVVVNSAGVMPMASIDVANLDAFDQVIATNLRGAFLVLAQAAANLGDDGRIIALSTSVIAKSLPGYGPYIASKAGVEGLVHVLANELRGRNITVNAIAPGPVGTDLFFNGKSEEAVASIARQAPMERIGMPDEIAAAVSFLAGPDGRWVNAQVLRVNGGFA
- protein production: failed

Sequence: DHKDLIVVAAKHGYALADRNTGQLSYIRKVWDEQEDPEKARRMRFNDGAVDSHGRFWAGSMNDPKVQKPTNEGVLFRLDPDLQLHRMVEGVSIPNGIGWNLRDDTMYFTDSPTAKIFAFDFDASTGTISNRRVHYDVGEPMEPDGFAIDEEGCIWSAIYGGGKIIRISPEGKLIGEISFPTRNITCPTFVGTELFVTTAKDDVNDEQFPESVRYGGRVYRIDVGVRGKPKNEFRFQK
- protein production: failed

Sequence: MAESQALSDDIGFLLSRVGGMVLGAVNKALVPTGLRVRSYSVLVLACEQAEGVNQRGVAATMGLDPSQIVGLVDELEERGLVVRTLDPSDRRNKLIAATEEGRRLRDDAKARVDAAHGRYFEGIPDTVVNQMRDTLQSIAFPTFVE
- protein production: not failed

Sequence: DFPKINHGILYDEEKYKPFSQVPTGEVFYYSCEYNFVSPSKSFWTRITCAEEGWSPTPKCLRLCFFPFVENGHSESSGQTHLEGDTVQIICNTGYRLQNNENNISCVERGWSTPPKCRSTISAEKCGPPPPIDNGDITSFLLSVYAPGSSVEYQCQNLYQLEGNNQITCRNGQWSEPPKCLDPCVISQEIMEKYNIKLKWTNQQKLYSRTGDIVEFVCKSGYHPTKSHSFRAMCQNGKLVYPSCEEK
- protein production: not failed

Sequence: MEPISARSMISAAATEAVVASGDGAPRVERRKRLSPAALAVANQKVPPAFSPIVIAGSVRLADFLVIAAVGIALYFALVVRRDGFAWEYIAAILGTTATAVVAFQAADLYEVQLFRGTLKQMTRIISTWSIVFLLFIGASFFAKLGGEVSRLWLGSFFFAGLALLIIERLSVRALVRRWASQGRLDRRTVIVGADANGAKLIEALKAEHADASDIRILGVFDDRNDARSQSTCAGVPKLGKVDDIPEFARRTRVDLVLFALPISAETRILDMLKKLWVLPVDIRLSAHTNKLRFRPRAYSYVGKVPTLDVFEAPITDWDQVIKQVFDRVVGGFILLLAAPVMALVALAIKLDSPGPVLFRQKRFGFNNERIDVLKFRSMYHDQADPTASKVVTRNDPRVTRVGRFIRRTSLDELPQLFNVVFKGNLSLVGPRPHAVQGKLQSQLFDEAVDGYFARHRVKPGITGWAQINGWRGEIDNEEKIQKRVEFDLYYIENWSVLFDLYILLRTPWALLKGENAY
- protein production: failed

Sequence: MYVLVSSPFHYKQFTKFTIFSVFAGFSFIQNELTTYWFFILLFRQEITLFGLGVIARPLVRVFVSYLMGYISDKYDRAKLFYITRGISGILLFPLTFAFIYHSIPLIFGIYYIRTIIVELSNNVGYVAYYAVVPEQVRAKAIFYIRIISMASRVASGAVWYLIYQLISAYDLFLAGILGLIGLALLKGFNIGGGSKRVKLSTAIDFFRKDERIRGIILLYSVTDGLTYSINYLLPLLIIVYHGTEEIYSLSQTVLYGILVIASFVMTRIKDPIKIVSTYILSGFLFYLVLLYPSPYVLLISVLLYGFGSGIVENYVMATIKQSVGDEFLGSVLGLDVLVTSSVEIFLILLGQYLITINVVYYIIVGIVGMSLVLISWLLHPKLKDIKL
- protein production: failed

Sequence: MMFLSKTLTSLGQWPHSLPRISLMDRYVARQLIPPFLFSVGVVASLGLAIGNLSDLGNKIVEKNLPVAKAAEVLLLKVPEFLAYSLPVAVMLATMMTFGRLSGDCEIIAIRSCGVSLYRLILPAVVLSLLVTGWAFVLTEWVVPVANYRATSILIESIDEEHPFWQNRDVFYPEFEEIKLDNGQTARRLKSLVYAEKFDGKEMQNLTVLQWTENHLKHIVLSDNATWNNDNKRWDFFHGTVYRLTETEDYQEAVPFTNKQIALPQSAFDFARQGRDPYEMTIAEAQDYIKILKLIGDEKKTQFFQVRTEQKLAFPFVCIVFAVVGSAIGARPQRISRATGFGLTIVIIFAYYILGFFSGSLGIVGLISPTLAAWLPNFVGLGVGIWLLYEFNQG
- protein production: failed

Sequence: MKVTSAEKHALLLPDNRTLTWYESGPSDGQPVLFCTGAGMSGLLSMDADLLTKLNIRLITPTRPGLGESTFDPKKTLKSFSSDVLFLLAYLNIKNISVIGSSQGAVFAMAICYYGKVDKLAIVAGQDQLDYPEIKKLLSSDVVNMQQQALFDPDGLKTWIIENITADWLMDFILNYSADVDLALYQENKFFPVYQACMKEAFKYGNKGYAQDLLITMQPWGFTPEMISTPTTLWYGLKDTSTVHSPDFGKLLSQRFPHAQRYVYDNEGGSLLWTKTSQILTNLIS
- protein production: failed

Sequence: MVARDTTAPQVKIVNPVTGNVSGSNVPISVNASDDSGASGITYALYIDGVLKATGKGSTLGYNWNIRNVAAGAHTVQVVAKDAAGNSASSSLEHHHHHH
- protein production: not failed

Sequence: MQNNSYGYAVSVRVGGKEHRHWERYDIDSDFLIPADSFDFVIGRLGPEAAIPDLSGESCEVVIDGQIVMTGIIGSQRHGKSKGSRELSLSGRDLAGFLVDCSAPQLNVKGMTVLDAAKKLAAPWPQIKAVVLKAENNPALGKIDIEPGETVWQALTHIANSVGLHPWLEPDGTLVVGGADYSSPPVATLCWSRTDSRCNIERMDIEWDTDNRFSEVTFLAQSHGRSGDSAKHDLKWVYKDPTMTLHRPKTVVVSDADNLAALQKQAKKQLADWRLEGFTLTITVGGHKTRDGVLWQPGLRVHVIDDEHGIDAVFFLMGRRFMLSRMDGTQTELRLKEDGIWTPDAYPKKAEAARKRKGKRKGVSHKGKKGGKKQAETAVFE
- protein production: not failed

Sequence: MITRLTDIELEQIRGVIFDLDGTLAHSNPDFKGLRAALGIGSGTDILEHIHSLETTVAKMQALEIVHDYELESSRQASWIEGAQALIAFLKTRQLPLAILTRNMPEAAKITIEKLGIDIPLVLTRYDAEPKPHPQGIYLICEQWQLNPADILYVGDYLFDLQTAQNAGSRCALYCPEDVPDYAQAADLLVSCYHSLIQAWPK
- protein production: failed

Sequence: MVDSYDDSLDGEKSKTQVKRELHALVDLGERLTTLKADVLAKLPLTDALRKALAEAPKHTANIARKRHILFIGKLMRDQDQEAILVLLDQLDASTRQYNERFHNLERWRDRLIAGDDADLEKFVIEYPDADRQQLRSLIRQAQHEVARNKPPATSRKIFKYIRELDELQRGLR
- protein production: not failed

Sequence: MFRKLAAECFGTFWLVFGGCGSAVLAAGFPELGIGFAGVALAFGLTVLTMAFAVGHISGGHFNPAVTIGLWAGGRFPAKEVVGYVIAQVVGGIVAAALLYLIASGKTGFDAAASGFASNGYGEHSPGGYSMLSALVVELVLSAGFLLVIHGATDKFAPAGFAPIAIGLALTLIHLISIPVTNTSVNPARSTAVAIFQGGWALEQLWFFWVVPIVGGIIGGLIYRTLLEKRD
- protein production: not failed

Sequence: SGSEPTKVMVAVNASTIKDYPNPSISCKRAFEWTLEKIVRSNTSDFKILLLHVQVVDEDGFDDVDSIYASPEDFRDMRQSNKAKGLHLLEFFVNKCHEIGVGCEAWIKTGDPKDVICQEVKRVRPDFLVVGSRGLGRFQKVFVGTVSAFCVKHAECPVMTIKRNADETPSDPADD
- protein production: not failed

Sequence: MLADELTIGPIRAVPMDITPKYVGIASGLMNAGSAVADIISPIAFGIIIDKTGNWSLPFYGSVALLVIGIFLTFFMRPDKSL
- protein production: failed

Sequence: MTPLPPRPGPGARLARPAAAVLLVAAIGALAAFAPGPATRALESLRQSAPAAAAALAAAYVASGPLMIPAPLLHLAAGFALGPVSGSLVAIPASTLGACAAFAAGRWLVRERAARLAARSPALAGVDAALAASGFRVVLLLRLAPLAPFTVLNYLLGATPVPLRAFALASLLGSVPGLILSVYVGSLAADAAALRATVDAGRGGPGALILPAIGTGAILLAISWVLRRALAASAGARPPPA
- protein production: failed

Sequence: MALHNDGFINRQFVFGDFVLQFDGVLCHQEQQISVPPKELAVLTALLEAAGELVSKDALLDKVWPDGDVNEESLTRCIYALRRILLEDKSNRYIDTVYGKGYRFSRPVAVVSRPTASAQKCTMAILPFRTDGQLDSLELHAALVQCLSRYSPFGLVVMPATITRNCGDIADIIAMIDQLRPDYYLAGQVQQQGDSWLLRVELVRADGHQLVHHESIEIGPGEHIAALQTRLASLLPQRIPGLRWHHGNGSQLDSLDMAITYLNGRHELQQHTPSSLKRALALFLQCTSSQPGNALPYCSLAECYLALAQLGLFDQERALDGAQQAVDRAVALDAANPQALGLLALLSSLRGQQTIAEALFEQARMLAPDSIDIHYYHAWHLFLSDRIPLAQRSLDACLERDPSRIAASMLQLWLTYCEHRLDEAVALGKRQLCQYGQDHPVLQSMLGLMLAIQGQHAQAEELAAAVKASGEEAGLLAVNGCYIAHCRMGDAARPLLQDFLSRVDCRQVRSGLLPLILALHGRAGALHLLGQLESDRYLWLRASRQDPRLAGLFHPHLSEAA
- protein production: failed

Sequence: MAPKDITFVERCYKYIDMNKNNWSPYTVTSTKSWVKNYIEPFFKNLKLTEVNPSSVQAFVNYNFNNSTFTSAKVRYSFLSSVIREAYRLREIQENSCDFIKLPLEHHHHHH
- protein production: not failed
